According to the supplement of paper PMC6757056:
± gives the standard deviation of the averaged measurements.

B1: library; a variant is named by its letters at N, in order (parent)
chain: GCUGUCACCGGUGCUUGGUACGUUAUAUUCAGCCGGUCUGAUGAGUCUNNNNNNAGACGAAACAGC

Experiments:
[1] = variants of: B1; assay: normalized RNA/DNA level without ligand (relative to sTRSVctl = 100) (log10 (% of sTRSVctl)); HEK293T overexpressing SLC46A1; higher = less ribozyme self-cleavage, higher mRNA level; conditions: without (6R,S)-folinic acid; ligand present: no
In short: (§1)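 HEK293T cells received ligand, where used, 1 h before being transfected with 4 µg per 6-well well of library plasmids encoding reporter-linked ribozyme switches. After 72 h, RNA was extracted with EDTA and sequenced. RNA level was derived from RNA reads per DNA read, normalized to a spiked-in non-cleaving sequence or the top sequences, then scaled and log-transformed. Values were ×100 then log10, the top set was 25 sequences, and the minimum was 100 DNA reads.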

[2] = variants of: B1; assay: normalized RNA/DNA level with ligand (relative to sTRSVctl = 100) (log10 (% of sTRSVctl)); HEK293T overexpressing SLC46A1; ligand concentration (+) RNA-Seq: 6 mM; higher = less ribozyme self-cleavage, higher mRNA level; conditions: with (6R,S)-folinic acid; ligand present: yes
In short: as §1

| Variant | normalized RNA/DNA level without ligand (log10) [1] | normalized RNA/DNA level with ligand (log10) [2] |
| --- | --- | --- |
| GUGAGU | 1.96 ± 0.025 | 2.03 ± 0.025 |
| GUGAGC | 1.74 ± 0.024 | 1.962 ± 0.011 |
| AUCUCU | 2.02 ± 0.023 | 2.021 ± 0.0047 |
| AUCUCC | 2.04 ± 0.0049 | 2.03 ± 0.064 |
| AUCUCA | 2.02 ± 0.022 | 2.018 ± 0.0082 |
| AUGCGC | 2.017 ± 0.0084 | 2.009 ± 0.018 |
| CUGAUU | 2.015 ± 0.007 | 2.05 ± 0.052 |
| CUGAUA | 1.9701 ± 0.00086 | 2.02 ± 0.048 |
| CUGAUC | 2.0695 ± 0.0006 | 2.038 ± 0.013 |
| CUGAUG | 2.014 ± 0.013 | 2.013 ± 0.014 |
| GUGAAC | 1.908 ± 0.0094 | 2.012 ± 0.0064 |
| GUGUCU | 1.982 ± 0.0041 | 1.98 ± 0.045 |
| GUGUCC | 1.97 ± 0.011 | 1.99 ± 0.034 |
| GUGUCG | 2.006 ± 0.0093 | 2.06 ± 0.037 |
| UUGAAC | 2 ± 0.023 | 2.025 ± 0.016 |
| UUGAAU | 1.955 ± 0.0032 | 2.01 ± 0.025 |
| CUGGAC | 1.9905 ± 0.0006 | 2 ± 0.038 |
| CUGGAG | 1.883 ± 0.01 | 1.99 ± 0.029 |
| GUGGGG | 1.94 ± 0.026 | 2.03 ± 0.028 |
| GUGGGU | 1.98 ± 0.022 | 2 ± 0.045 |
| GUGAUU | 2.01 ± 0.024 | 2.02 ± 0.022 |
| GUGAUC | 2.03 ± 0.021 | 2.036 ± 0.02 |
| GUGAUG | 1.908 ± 0.015 | 1.99 ± 0.035 |

| Variant | normalized RNA/DNA level without ligand (log10) [1] | normalized RNA/DNA level with ligand (log10) [2] |
| --- | --- | --- |
| GUGGAA | 1.915 ± 0.0022 | 2.01 ± 0.048 |
| GUGGAU | 1.9394 ± 0.0013 | 2.01 ± 0.035 |
| GUGGAG | 1.86 ± 0.027 | 2 ± 0.041 |
| UUGCGG | 1.96 ± 0.02 | 2 ± 0.031 |
| UUGCGC | 2.062 ± 0.007 | 2.079 ± 0.00078 |
| UUGCGA | 1.97 ± 0.022 | 2.02 ± 0.055 |
| UUGCGU | 1.98 ± 0.031 | 2.03 ± 0.032 |
| UUGAUC | 2.051 ± 0.0013 | 2.01 ± 0.022 |
| UUGAUU | 2.017 ± 0.012 | 2.027 ± 0.013 |
| UUGAUA | 1.978 ± 0.0072 | 2.03 ± 0.029 |
| CUCUCG | 2.05 ± 0.014 | 2.014 ± 0.0035 |
| CUCUCC | 2.1 ± 0.025 | 2.07 ± 0.022 |
| CUCUCU | 2.025 ± 0.017 | 2.019 ± 0.0069 |
| CUCUCA | 2.05 ± 0.015 | 2.02 ± 0.057 |
| GUCUGA | 2.05 ± 0.021 | 2.05 ± 0.038 |
| GUCUGU | 2.016 ± 0.0056 | 2.06 ± 0.027 |
| AUGAAC | 1.95 ± 0.004 | 1.97 ± 0.048 |
| CUGACU | 2.028 ± 0.004 | 2 ± 0.023 |
| CUGACA | 1.996 ± 0.01 | 2.03 ± 0.022 |
| CUGACC | 2.05 ± 0.017 | 2.01 ± 0.033 |
| CUGACG | 2 ± 0.006 | 2.046 ± 0.02 |
| UUGUAC | 1.9902 ± 0.00038 | 2.02 ± 0.045 |
| UUGUAA | 1.943 ± 0.011 | 2.003 ± 0.016 |

| Variant | normalized RNA/DNA level without ligand (log10) [1] | normalized RNA/DNA level with ligand (log10) [2] |
| --- | --- | --- |
| CUGUGC | 2.01 ± 0.05 | 2.02 ± 0.028 |
| CUGUGU | 1.997 ± 0.017 | 2.011 ± 0.004 |
| CUGUGA | 2.028 ± 0.0096 | 2.04 ± 0.035 |
| CUGUGG | 1.96 ± 0.0026 | 2.059 ± 0.016 |
| GUCGUC | 2.02 ± 0.03 | 2.02 ± 0.034 |
| GUCGUG | 1.9677 ± 0.0013 | 2.04 ± 0.029 |
| GUCGUU | 2.029 ± 0.018 | 2.02 ± 0.056 |
| CUCGUA | 2.004 ± 0.016 | 1.98 ± 0.046 |
| CUCGUC | 2.15 ± 0.022 | 2.12 ± 0.035 |
| CUCGUU | 2.0737 ± 0.0011 | 2.0492 ± 0.0012 |
| CUCGUG | 1.9917 ± 0.0012 | 2.013 ± 0.018 |
| UUCGUG | 1.81 ± 0.027 | 1.99 ± 0.067 |
| UUCGUU | 2.009 ± 0.013 | 1.98 ± 0.042 |
| UUCGUC | 2.1 ± 0.024 | 2.06 ± 0.068 |
| UUCGUA | 1.96 ± 0.025 | 1.97 ± 0.02 |
| UUGACU | 2.0063 ± 0.0015 | 2.04 ± 0.053 |
| UUGACC | 2.04 ± 0.0038 | 2.04 ± 0.032 |
| UUGACG | 1.866 ± 0.0091 | 1.996 ± 0.019 |
| UUGACA | 1.956 ± 0.018 | 1.98 ± 0.021 |
| CUCUGA | 2.067 ± 0.012 | 2.046 ± 0.0084 |
| CUCUGG | 2.04 ± 0.021 | 2.04 ± 0.028 |
| CUCUGU | 2.0266 ± 0.0016 | 2.037 ± 0.0081 |
| CUCUGC | 2.02 ± 0.025 | 2.03 ± 0.027 |

| Variant | normalized RNA/DNA level without ligand (log10) [1] | normalized RNA/DNA level with ligand (log10) [2] |
| --- | --- | --- |
| CUGUCG | 2 ± 0.031 | 2.06 ± 0.065 |
| CUGUCC | 2.059 ± 0.0043 | 2.043 ± 0.017 |
| CUGUCA | 2.033 ± 0.011 | 2.07 ± 0.039 |
| CUGUCU | 2.037 ± 0.0082 | 2.04 ± 0.034 |
| UUGCCC | 2.04 ± 0.031 | 2.03 ± 0.036 |
| UUGCCA | 2.024 ± 0.013 | 2.042 ± 0.02 |
| UUGCCG | 1.974 ± 0.0045 | 2.03 ± 0.038 |
| UUGCCU | 2.07 ± 0.028 | 2.07 ± 0.024 |
| CUGAAU | 1.96 ± 0.003 | 1.99 ± 0.045 |
| CUGAAG | 1.881 ± 0.0031 | 1.995 ± 0.0079 |
| CUGAAC | 1.99 ± 0.035 | 1.99 ± 0.024 |
| AUGUGC | 1.97 ± 0.021 | 1.981 ± 0.018 |
| AUGUGU | 1.83 ± 0.032 | 1.97 ± 0.047 |
| AUGUGA | 1.944 ± 0.014 | 2.014 ± 0.019 |
| CUGGUG | 1.982 ± 0.0025 | 2.04 ± 0.037 |
| CUGGUU | 1.97 ± 0.04 | 1.99 ± 0.046 |
| CUGGUA | 1.95 ± 0.023 | 1.98 ± 0.034 |
| CUGGUC | 2.057 ± 0.0038 | 2.04 ± 0.044 |
| GUGCUU | 2.037 ± 0.0067 | 2.039 ± 0.015 |
| GUGCUA | 1.994 ± 0.0059 | 1.98 ± 0.04 |
| GUGCUC | 2.05 ± 0.032 | 2.01 ± 0.045 |
| CUGGGG | 1.871 ± 0.005 | 2.007 ± 0.0051 |
| CUGGGU | 2.025 ± 0.02 | 2.032 ± 0.017 |

| Variant | normalized RNA/DNA level without ligand (log10) [1] | normalized RNA/DNA level with ligand (log10) [2] |
| --- | --- | --- |
| CUGGGC | 2.059 ± 0.0035 | 2.03 ± 0.03 |
| AUCGUC | 2.106 ± 0.011 | 2.06 ± 0.027 |
| AUCGUA | 1.982 ± 0.008 | 1.993 ± 0.013 |
| AUCGUU | 2.043 ± 0.0096 | 2.01 ± 0.036 |
| AUCGUG | 1.906 ± 0.0026 | 2.01 ± 0.026 |
| UUGCUU | 2.016 ± 0.013 | 2.04 ± 0.04 |
| UUGCUG | 1.978 ± 0.004 | 2.01 ± 0.05 |
| UUGCUC | 2.046 ± 0.01 | 2.02 ± 0.052 |
| CUCGGU | 2.03 ± 0.034 | 2.02 ± 0.028 |
| GUCUUA | 2.03 ± 0.025 | 2.034 ± 0.013 |
| GUCUUU | 2.047 ± 0.0022 | 2.04 ± 0.064 |
| GUCUUC | 2.073 ± 0.0035 | 2.027 ± 0.0036 |
| UUGCAA | 1.96 ± 0.0066 | 1.987 ± 0.0035 |
| UUGCAC | 2.008 ± 0.015 | 2.02 ± 0.026 |
| UUGCAU | 1.975 ± 0.0029 | 2.01 ± 0.043 |
| AUGAUA | 1.946 ± 0.017 | 2.002 ± 0.019 |
| AUGAUC | 2.07 ± 0.028 | 2.06 ± 0.032 |
| AUGGCC | 2.063 ± 0.0035 | 2.04 ± 0.05 |
| AUGGCA | 1.9865 ± 2.8e-05 | 2 ± 0.046 |
| AUGGCU | 1.989 ± 0.011 | 2.02 ± 0.031 |
| GUCGGU | 2.018 ± 0.0045 | 2.06 ± 0.027 |
| GUGACG | 1.95 ± 0.017 | 2 ± 0.032 |
| GUGACU | 2.029 ± 0.0025 | 2.04 ± 0.041 |
